For the assay, the target named is MERS CoV spike protein (MERS CoV) (UniProt K9N5Q8). The assay is described as follows: cell-based or functional assay.

These results are taken from US20240254203A1.

MERS CoV spike protein (MERS CoV), sequence (K9N5Q8 18-1353): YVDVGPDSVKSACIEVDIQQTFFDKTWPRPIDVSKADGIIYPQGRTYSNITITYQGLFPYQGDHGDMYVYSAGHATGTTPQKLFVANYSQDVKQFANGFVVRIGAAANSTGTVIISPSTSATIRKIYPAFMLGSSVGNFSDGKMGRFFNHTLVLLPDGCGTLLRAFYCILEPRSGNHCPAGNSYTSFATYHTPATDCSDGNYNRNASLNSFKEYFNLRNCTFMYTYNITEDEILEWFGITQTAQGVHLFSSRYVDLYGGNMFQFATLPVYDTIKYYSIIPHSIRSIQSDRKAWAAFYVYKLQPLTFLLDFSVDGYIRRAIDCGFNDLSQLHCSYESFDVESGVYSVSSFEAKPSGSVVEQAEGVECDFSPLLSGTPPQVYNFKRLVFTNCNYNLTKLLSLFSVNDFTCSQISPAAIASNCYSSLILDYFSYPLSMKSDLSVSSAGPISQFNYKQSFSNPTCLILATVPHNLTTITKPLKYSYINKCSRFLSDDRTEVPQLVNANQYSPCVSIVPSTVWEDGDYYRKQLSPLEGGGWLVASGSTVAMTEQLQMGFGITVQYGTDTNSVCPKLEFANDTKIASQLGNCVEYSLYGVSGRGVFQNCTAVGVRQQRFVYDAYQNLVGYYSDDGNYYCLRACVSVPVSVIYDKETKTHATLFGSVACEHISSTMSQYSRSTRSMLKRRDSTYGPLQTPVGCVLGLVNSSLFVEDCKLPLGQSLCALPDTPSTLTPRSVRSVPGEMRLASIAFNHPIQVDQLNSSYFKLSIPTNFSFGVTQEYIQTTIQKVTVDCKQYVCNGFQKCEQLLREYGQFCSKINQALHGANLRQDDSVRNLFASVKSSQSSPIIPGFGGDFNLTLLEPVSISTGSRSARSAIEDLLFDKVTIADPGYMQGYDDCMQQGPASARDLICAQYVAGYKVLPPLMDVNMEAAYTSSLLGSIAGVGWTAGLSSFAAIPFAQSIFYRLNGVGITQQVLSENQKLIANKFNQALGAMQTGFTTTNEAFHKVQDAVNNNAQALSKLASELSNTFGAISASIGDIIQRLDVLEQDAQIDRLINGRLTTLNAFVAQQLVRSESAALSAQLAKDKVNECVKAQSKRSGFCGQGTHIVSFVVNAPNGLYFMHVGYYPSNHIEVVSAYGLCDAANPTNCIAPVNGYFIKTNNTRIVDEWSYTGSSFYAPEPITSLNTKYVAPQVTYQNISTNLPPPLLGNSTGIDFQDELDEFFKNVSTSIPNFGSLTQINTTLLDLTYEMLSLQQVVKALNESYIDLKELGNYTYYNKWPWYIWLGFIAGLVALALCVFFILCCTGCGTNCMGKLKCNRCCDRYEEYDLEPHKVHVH

B1: soluble 7D10 (antibody, V domains shown)
VH: EVQLVESGAEVVKPGASVKMSCKASGYPFTSYNIHWIKQTPGQGLEWIGAIYPGNGDTSYTQKFKVKATLTSDKSSSTAYMQLSSLTSEDSAVYFCARYGNYPSYAMDYWGQGTSVTVSS
VL: DIVMTQSPASLTVSLGQRATISCRASKSVSASGYNYLHWYQQRPGQPPKLLIYLAFNLESGVPARFNGSGSGTDFTLNIHPVEEEDAATYYCQHSRDLPFTFGSGTKLEIK
B1 gave an IC50, neutralization of MERS CoV by the soluble antibody of 1.2 nM.

B2: αNTD:7D10/VM (scFv)
scFv: DIVMTQSPASLTVSLGQRATISCRASKSVSASGYNYLHWYQQRPGQPPKLLIYLAFNLESGVPARFNGSGSGTDFTLNIHPVEEEDAATYYCQHSRDLPFTFGSGTKLEIKGGGSGGGSGGGSEVQLVESGAEVVKPGASVKMSCKASGYPFTSYNIHWIKQTPGQGLEWIGAIYPGNGDTSYTQKFKVKATLTSDKSSSTAYMQLSSLTSEDSAVYFCARYGNYPSYAMDYWGQGTSVTVSSSRGMLDSDLHLSSKAQVFEHPHIQDAASQLPDDESLFFGDTGLSKNPIELVEGWFSSWKSSIASFFFIIGLIIGLFLVLRVGIHLCIKLKHTKKRQIYTDIEMNRLGK
As for B2, the Antivirus vs Pseudovirus IC50 (pM) came to 12 pM.
